According to article PMC7954794 (2021):

B1: S. cerevisiae Abp1 (full length; SH3 domain 535-592 mutated) / Hua2 (parent complex)
chain 1: MALEPIDYTTHSREIDAEYLKIVRGSDPDTTWLIISPNAKKEYEPESTGSSFHDFLQLFDETKVQYGLARVSPPGSDVEKIIIIGWCPDSAPLKTRASFAANFAAVANNLFKGYHVQVTARDEDDLDENELLMKISNAAGARYSIQTSSKQQGKASTPPVKKSFTPSKSPAPVSKKEPVKTPSPAPAAKISSRVNDNNDDDDWNEPELKERDFDQAPLKPNQSSYKPIGKIDLQKVIAEEKAKEDPRLVQKPTAAGSKIDPSSDIANLKNESKLKRDSEFNSFLGTTKPPSMTESSLKNDDDKVIKGFRNEKSPAQLWAERKAKQNSGNAETKAEAPKPEVPEDEPEGEPDVKDLKSKFEGLAASEKEEEEMENKFAPPPKKSEPTIISPKPFSKPQEPVKAEEAEQPKTDYKKIGNPLPGMHIEADNEEEPEENDDDWDDDEDEAAQPPLPSRNVASGAPVQKEEPEQEEIAPSLPSRNSIPAPKQEEAPEQAPEEEIEEEAEEAAPQLPSRSSAAPPPPPRRATPEKKPKENPWATAEYDYDAAEDNELTFVENDKIINIEFVDDDWWLGELEKDGSKGLFPSNYVSLGN
chain 2: MQQTKFGKMYLDHDSVVEYSEDEIVEADRITLGYKKRLSMIENQMRHLLEDFSLDVQQIEPILADLQKYYDAFLQLLQKRNKSLQCKRSTHQPVPSPMNSQTSTNAKVNLSGKLMKFQLNSVQKFDEENILRILQNKIEFEHYFQIDKGKKQKVLLLAVYQCLNGPTRLHKVLNIEGIIHNNSIRTILGKQVSSSKWTVFLYDVKLVLLAHRQDVPNLETSKMIVRYGDLFPCALYFKDHTAY

Variants of: B1
Experiment: DHFR protein-fragment complementation in yeast (Abp1-DHFR F[1,2] x partner-DHFR F[3]), deep mutational scanning, second methotrexate selection vs reference; S. cerevisiae, DHFR-PCA selection in liquid with methotrexate at 30 C, two 72 h selections (the score uses the second); reference = the pre-selection culture

screen value	Variant
0.374 DMS score: mean over two replicates of log2(f_test/f_ref + 0.5)/ln 2, minus the synonymous-codon median (not a log2 …	chain 1 MALEPIDYTTHSREIDAEYLKIVRGSDPDTTWLIISPNAKKEYEPESTGSSFHDFLQLFDETKVQYGLARVSPPGSDVEKIIIIGWCPDSAPLKTRASFAANFAAVANNLFKGYHVQVTARDEDDLDENELLMKISNAAGARYSIQTSSKQQGKASTPPVKKSFTPSKSPAPVSKKEPVKTPSPAPAAKISSRVNDNNDDDDWNEPELKERDFDQAPLKPNQSSYKPIGKIDLQKVIAEEKAKEDPRLVQKPTAAGSKIDPSSDIANLKNESKLKRDSEFNSFLGTTKPPSMTESSLKNDDDKVIKGFRNEKSPAQLWAERKAKQNSGNAETKAEAPKPEVPEDEPEGEPDVKDLKSKFEGLAASEKEEEEMENKFAPPPKKSEPTIISPKPFSKPQEPVKAEEAEQPKTDYKKIGNPLPGMHIEADNEEEPEENDDDWDDDEDEAAQPPLPSRNVASGAPVQKEEPEQEEIAPSLPSRNSIPAPKQEEAPEQAPEEEIEEEAEEAAPQLPSRSSAAPPPPPRRATPEKKPKENPWATAEYDYDASEDNELTFVENDKIINIEFVDDDWWLGELEKDGSKGLFPSNYVSLGN [chain 1 A546S]
0.912 DMS score: mean over two replicates of log2(f_test/f_ref + 0.5)/ln 2, minus the synonymous-codon median (not a log2 …	chain 1 MALEPIDYTTHSREIDAEYLKIVRGSDPDTTWLIISPNAKKEYEPESTGSSFHDFLQLFDETKVQYGLARVSPPGSDVEKIIIIGWCPDSAPLKTRASFAANFAAVANNLFKGYHVQVTARDEDDLDENELLMKISNAAGARYSIQTSSKQQGKASTPPVKKSFTPSKSPAPVSKKEPVKTPSPAPAAKISSRVNDNNDDDDWNEPELKERDFDQAPLKPNQSSYKPIGKIDLQKVIAEEKAKEDPRLVQKPTAAGSKIDPSSDIANLKNESKLKRDSEFNSFLGTTKPPSMTESSLKNDDDKVIKGFRNEKSPAQLWAERKAKQNSGNAETKAEAPKPEVPEDEPEGEPDVKDLKSKFEGLAASEKEEEEMENKFAPPPKKSEPTIISPKPFSKPQEPVKAEEAEQPKTDYKKIGNPLPGMHIEADNEEEPEENDDDWDDDEDEAAQPPLPSRNVASGAPVQKEEPEQEEIAPSLPSRNSIPAPKQEEAPEQAPEEEIEEEAEEAAPQLPSRSSAAPPPPPRRATPEKKPKENPWATAEYDYDAAEDNELTFSENDKIINIEFVDDDWWLGELEKDGSKGLFPSNYVSLGN [chain 1 V554S]
1.56 DMS score: mean over two replicates of log2(f_test/f_ref + 0.5)/ln 2, minus the synonymous-codon median (not a log2 …	chain 1 MALEPIDYTTHSREIDAEYLKIVRGSDPDTTWLIISPNAKKEYEPESTGSSFHDFLQLFDETKVQYGLARVSPPGSDVEKIIIIGWCPDSAPLKTRASFAANFAAVANNLFKGYHVQVTARDEDDLDENELLMKISNAAGARYSIQTSSKQQGKASTPPVKKSFTPSKSPAPVSKKEPVKTPSPAPAAKISSRVNDNNDDDDWNEPELKERDFDQAPLKPNQSSYKPIGKIDLQKVIAEEKAKEDPRLVQKPTAAGSKIDPSSDIANLKNESKLKRDSEFNSFLGTTKPPSMTESSLKNDDDKVIKGFRNEKSPAQLWAERKAKQNSGNAETKAEAPKPEVPEDEPEGEPDVKDLKSKFEGLAASEKEEEEMENKFAPPPKKSEPTIISPKPFSKPQEPVKAEEAEQPKTDYKKIGNPLPGMHIEADNEEEPEENDDDWDDDEDEAAQPPLPSRNVASGAPVQKEEPEQEEIAPSLPSRNSIPAPKQEEAPEQAPEEEIEEEAEEAAPQLPSRSSAAPPPPPRRATPEKKPKENIWATAEYDYDAAEDNELTFVENDKIINIEFVDDDWWLGELEKDGSKGLFPSNYVSLGN [chain 1 P535I]
0.611 DMS score: mean over two replicates of log2(f_test/f_ref + 0.5)/ln 2, minus the synonymous-codon median (not a log2 …	chain 1 MALEPIDYTTHSREIDAEYLKIVRGSDPDTTWLIISPNAKKEYEPESTGSSFHDFLQLFDETKVQYGLARVSPPGSDVEKIIIIGWCPDSAPLKTRASFAANFAAVANNLFKGYHVQVTARDEDDLDENELLMKISNAAGARYSIQTSSKQQGKASTPPVKKSFTPSKSPAPVSKKEPVKTPSPAPAAKISSRVNDNNDDDDWNEPELKERDFDQAPLKPNQSSYKPIGKIDLQKVIAEEKAKEDPRLVQKPTAAGSKIDPSSDIANLKNESKLKRDSEFNSFLGTTKPPSMTESSLKNDDDKVIKGFRNEKSPAQLWAERKAKQNSGNAETKAEAPKPEVPEDEPEGEPDVKDLKSKFEGLAASEKEEEEMENKFAPPPKKSEPTIISPKPFSKPQEPVKAEEAEQPKTDYKKIGNPLPGMHIEADNEEEPEENDDDWDDDEDEAAQPPLPSRNVASGAPVQKEEPEQEEIAPSLPSRNSIPAPKQEEAPEQAPEEEIEEEAEEAAPQLPSRSSAAPPPPPRRATPEKKPKENTWATAEYDYDAAEDNELTFVENDKIINIEFVDDDWWLGELEKDGSKGLFPSNYVSLGN [chain 1 P535T]
-0.103 DMS score: mean over two replicates of log2(f_test/f_ref + 0.5)/ln 2, minus the synonymous-codon median (not a log2 …	chain 1 MALEPIDYTTHSREIDAEYLKIVRGSDPDTTWLIISPNAKKEYEPESTGSSFHDFLQLFDETKVQYGLARVSPPGSDVEKIIIIGWCPDSAPLKTRASFAANFAAVANNLFKGYHVQVTARDEDDLDENELLMKISNAAGARYSIQTSSKQQGKASTPPVKKSFTPSKSPAPVSKKEPVKTPSPAPAAKISSRVNDNNDDDDWNEPELKERDFDQAPLKPNQSSYKPIGKIDLQKVIAEEKAKEDPRLVQKPTAAGSKIDPSSDIANLKNESKLKRDSEFNSFLGTTKPPSMTESSLKNDDDKVIKGFRNEKSPAQLWAERKAKQNSGNAETKAEAPKPEVPEDEPEGEPDVKDLKSKFEGLAASEKEEEEMENKFAPPPKKSEPTIISPKPFSKPQEPVKAEEAEQPKTDYKKIGNPLPGMHIEADNEEEPEENDDDWDDDEDEAAQPPLPSRNVASGAPVQKEEPEQEEIAPSLPSRNSIPAPKQEEAPEQAPEEEIEEEAEEAAPQLPSRSSAAPPPPPRRATPEKKPKENPWATAEYDYDRAEDNELTFVENDKIINIEFVDDDWWLGELEKDGSKGLFPSNYVSLGN [chain 1 A545R]
